One block for each binder: values may come before it.
B4: PDZ domain of the intracellular scaffold protein PICK1 (domain or fragment, UniProt Q9NRD5 22-105, looked up)
chain: KVTLQKDAQNLIGISIGGGAQYCPCLYIVQVFDNTPAALDGTVAAGDEITGVNGRSIKGKTKVEVAKMIQEVKGEVTIHYNKLQ
notes: PICK1, PDZ domain; also called PICK1 PDZ domain

Assays:
[1] = biological target: the molecule itself; test: not stated; result shown in Supplementary Fig. 2 (not shown); the methods tell only that the pentamer fraction was isolated by SEC (S200 10/300, 20 mM HEPES pH 7.4, 300 mM NaCl, 0.2% DPC or 0.1% LDAO)
[2] = biological target: the molecule itself; test: SEC; Superdex 200 10/300 Increase GL, 10 mM sodium acetate pH 4.8, 100 mM NaCl, 0.05% LDAO; elution peak at 12.6 ml
[3] = biological target: B4; test: SPR; steady state; α7nAChR immobilised on an NTA sensor chip (1000-2000 RU), PICK1 PDZ domain flowed at 30 μl/min, 25 °C, Biacore 3000; receptor in 0.05% LDAO; apparent dissociation constants, Langmuir isotherm, n=3; conditions: both partners purified
[4] = biological target: B4; test: SPR; steady state; α7nAChR immobilised on an NTA sensor chip (1000-2000 RU), PICK1 PDZ domain flowed at 30 μl/min, 25 °C, Biacore 3000; receptor in 0.05% DDM; apparent dissociation constants, Langmuir isotherm, n=3; conditions: both partners purified
[5] = biological target: the molecule itself; test: DEER ESR; MTSL-labelled TMD+ICD C219 in LDAO micelles; non-adjacent/adjacent distance ratio ~1.6
[6] = biological target: T1, full-length human α7 nicotinic acetylcholine receptor (human, UniProt P36544 23-502); test: SPR; steady state; α7nAChR immobilised on an NTA sensor chip (1000-2000 RU), PICK1 PDZ domain flowed at 30 μl/min, 25 °C, Biacore 3000; receptor in 0.05% LDAO; apparent dissociation constants, Langmuir isotherm, n=3; conditions: both partners purified
T1 construct: human α7 nicotinic acetylcholine receptor, UniProtKB P36544 ACHA7_HUMAN, full length; also called α7nAChR; full length α7nAChR; source: E. coli Rosetta 2(DE3) pLysS, purified (NiNTA, SEC)

[7] = biological target: T1, full-length human α7 nicotinic …; test: SPR; steady state; α7nAChR immobilised on an NTA sensor chip (1000-2000 RU), PICK1 PDZ domain flowed at 30 μl/min, 25 °C, Biacore 3000; receptor in 0.05% DDM; apparent dissociation constants, Langmuir isotherm, n=3; conditions: both partners purified

T1 sequence (P36544 23-502): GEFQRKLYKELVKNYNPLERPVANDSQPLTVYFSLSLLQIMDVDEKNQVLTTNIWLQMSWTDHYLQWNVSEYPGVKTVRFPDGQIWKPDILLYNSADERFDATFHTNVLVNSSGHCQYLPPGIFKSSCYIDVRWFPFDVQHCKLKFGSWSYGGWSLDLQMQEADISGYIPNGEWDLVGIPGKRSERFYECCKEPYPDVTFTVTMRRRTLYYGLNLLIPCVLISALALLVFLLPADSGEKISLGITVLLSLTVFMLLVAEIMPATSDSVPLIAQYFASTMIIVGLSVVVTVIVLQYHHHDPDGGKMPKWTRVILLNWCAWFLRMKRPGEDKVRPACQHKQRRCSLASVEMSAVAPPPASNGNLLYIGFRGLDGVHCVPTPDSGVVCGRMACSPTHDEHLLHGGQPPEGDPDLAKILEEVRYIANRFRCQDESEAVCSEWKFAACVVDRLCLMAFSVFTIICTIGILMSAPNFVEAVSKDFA

B1: human α7 nicotinic acetylcholine receptor TMD + ICD construct (L209-V472) (domain or fragment, UniProt P36544 231-494, looked up)
chain: LYYGLNLLIPCVLISALALLVFLLPADSGEKISLGITVLLSLTVFMLLVAEIMPATSDSVPLIAQYFASTMIIVGLSVVVTVIVLQYHHHDPDGGKMPKWTRVILLNWCAWFLRMKRPGEDKVRPACQHKQRRCSLASVEMSAVAPPPASNGNLLYIGFRGLDGVHCVPTPDSGVVCGRMACSPTHDEHLLHGGQPPEGDPDLAKILEEVRYIANRFRCQDESEAVCSEWKFAACVVDRLCLMAFSVFTIICTIGILMSAPNFV
notes: human α7 nicotinic acetylcholine receptor, transmembrane domain plus intracellular domain, 264 residues L209-V472; Single-cysteine, spin-labelled and isotope-labelled versions gave the NMR and ESR restraints for the structure; also called α7nAChR TMD + ICD; source: E. coli Rosetta 2(DE3) pLysS, purified (NiNTA, SEC; pentamer fraction, in DPC or LDAO)
stoichiometry N [1]: 5

Kd [3]: 4 µM
Kd [4]: 4.2 µM
B2: human α7 nicotinic acetylcholine receptor TMD+ICD construct used for NMR (domain or fragment)
chain: SNAEEELYYGLNLLIPCVLISALALLVFLLPADSGEKISLGITVLLSLTVFMLLVAEIMPSTSDSSPSIAQYFASTMIIVGLSVVVTVIVLQYHHHDPDGGKMPKWTRVILLNWCAWFLRMKRPGEDKVRPACQHKQRRCSLASVEMSAVAPPPASNGNLLYIGFRGLDGVHCVPTPDSGVVCGRMACSPTHDEHLLHGGQPPEGDPDLAKILEEVRYIANRFRCQDESEAVCSEWKFAACVVDRLCLMAFSVFTIICTIGILMSAPNFVEE
notes: also called α7nAChR(TMD+ICD)NMR; α7nAChR TMD-ICD; source: E. coli Rosetta 2(DE3) pLysS, purified (NiNTA, SEC)
stoichiometry N [2]: 5

B3: α7nAChR TMD+ICD C219, single-cysteine construct labelled with MTSL (domain or fragment)
chain: SNAEEELYYGLNLLIPCVLISALALLVFLLPADSGEKISLGITVLLSLTVFMLLVAEIMPSTSDSSPSIAQYFASTMIIVGLSVVVTVIVLQYHHHDPDGGKMPKWTRVILLNWCAWFLRMKRPGEDKVRPACQHKQRRCSLASVEMSAVAPPPASNGNLLYIGFRGLDGVHCVPTPDSGVVCGRMACSPTHDEHLLHGGQPPEGDPDLAKILEEVRYIANRFRCQDESEAVCSEWKFAACVVDRLCLMAFSVFTIICTIGILMSAPNFVEE
modifications: MTSL on C219
stoichiometry N [5]: 5

Binder: B4
Kd [6]: 3.1 µM
Kd [7]: 3.3 µM
